Experimental data published in US20140087395A1.

Target: pig asialo-thyroglobulin (pig) (UniProt F1RRV3)
Experiment: cell-based or functional assay

UniProt F1RRV3, sequence (F1RRV3 20-2692 limits assumed): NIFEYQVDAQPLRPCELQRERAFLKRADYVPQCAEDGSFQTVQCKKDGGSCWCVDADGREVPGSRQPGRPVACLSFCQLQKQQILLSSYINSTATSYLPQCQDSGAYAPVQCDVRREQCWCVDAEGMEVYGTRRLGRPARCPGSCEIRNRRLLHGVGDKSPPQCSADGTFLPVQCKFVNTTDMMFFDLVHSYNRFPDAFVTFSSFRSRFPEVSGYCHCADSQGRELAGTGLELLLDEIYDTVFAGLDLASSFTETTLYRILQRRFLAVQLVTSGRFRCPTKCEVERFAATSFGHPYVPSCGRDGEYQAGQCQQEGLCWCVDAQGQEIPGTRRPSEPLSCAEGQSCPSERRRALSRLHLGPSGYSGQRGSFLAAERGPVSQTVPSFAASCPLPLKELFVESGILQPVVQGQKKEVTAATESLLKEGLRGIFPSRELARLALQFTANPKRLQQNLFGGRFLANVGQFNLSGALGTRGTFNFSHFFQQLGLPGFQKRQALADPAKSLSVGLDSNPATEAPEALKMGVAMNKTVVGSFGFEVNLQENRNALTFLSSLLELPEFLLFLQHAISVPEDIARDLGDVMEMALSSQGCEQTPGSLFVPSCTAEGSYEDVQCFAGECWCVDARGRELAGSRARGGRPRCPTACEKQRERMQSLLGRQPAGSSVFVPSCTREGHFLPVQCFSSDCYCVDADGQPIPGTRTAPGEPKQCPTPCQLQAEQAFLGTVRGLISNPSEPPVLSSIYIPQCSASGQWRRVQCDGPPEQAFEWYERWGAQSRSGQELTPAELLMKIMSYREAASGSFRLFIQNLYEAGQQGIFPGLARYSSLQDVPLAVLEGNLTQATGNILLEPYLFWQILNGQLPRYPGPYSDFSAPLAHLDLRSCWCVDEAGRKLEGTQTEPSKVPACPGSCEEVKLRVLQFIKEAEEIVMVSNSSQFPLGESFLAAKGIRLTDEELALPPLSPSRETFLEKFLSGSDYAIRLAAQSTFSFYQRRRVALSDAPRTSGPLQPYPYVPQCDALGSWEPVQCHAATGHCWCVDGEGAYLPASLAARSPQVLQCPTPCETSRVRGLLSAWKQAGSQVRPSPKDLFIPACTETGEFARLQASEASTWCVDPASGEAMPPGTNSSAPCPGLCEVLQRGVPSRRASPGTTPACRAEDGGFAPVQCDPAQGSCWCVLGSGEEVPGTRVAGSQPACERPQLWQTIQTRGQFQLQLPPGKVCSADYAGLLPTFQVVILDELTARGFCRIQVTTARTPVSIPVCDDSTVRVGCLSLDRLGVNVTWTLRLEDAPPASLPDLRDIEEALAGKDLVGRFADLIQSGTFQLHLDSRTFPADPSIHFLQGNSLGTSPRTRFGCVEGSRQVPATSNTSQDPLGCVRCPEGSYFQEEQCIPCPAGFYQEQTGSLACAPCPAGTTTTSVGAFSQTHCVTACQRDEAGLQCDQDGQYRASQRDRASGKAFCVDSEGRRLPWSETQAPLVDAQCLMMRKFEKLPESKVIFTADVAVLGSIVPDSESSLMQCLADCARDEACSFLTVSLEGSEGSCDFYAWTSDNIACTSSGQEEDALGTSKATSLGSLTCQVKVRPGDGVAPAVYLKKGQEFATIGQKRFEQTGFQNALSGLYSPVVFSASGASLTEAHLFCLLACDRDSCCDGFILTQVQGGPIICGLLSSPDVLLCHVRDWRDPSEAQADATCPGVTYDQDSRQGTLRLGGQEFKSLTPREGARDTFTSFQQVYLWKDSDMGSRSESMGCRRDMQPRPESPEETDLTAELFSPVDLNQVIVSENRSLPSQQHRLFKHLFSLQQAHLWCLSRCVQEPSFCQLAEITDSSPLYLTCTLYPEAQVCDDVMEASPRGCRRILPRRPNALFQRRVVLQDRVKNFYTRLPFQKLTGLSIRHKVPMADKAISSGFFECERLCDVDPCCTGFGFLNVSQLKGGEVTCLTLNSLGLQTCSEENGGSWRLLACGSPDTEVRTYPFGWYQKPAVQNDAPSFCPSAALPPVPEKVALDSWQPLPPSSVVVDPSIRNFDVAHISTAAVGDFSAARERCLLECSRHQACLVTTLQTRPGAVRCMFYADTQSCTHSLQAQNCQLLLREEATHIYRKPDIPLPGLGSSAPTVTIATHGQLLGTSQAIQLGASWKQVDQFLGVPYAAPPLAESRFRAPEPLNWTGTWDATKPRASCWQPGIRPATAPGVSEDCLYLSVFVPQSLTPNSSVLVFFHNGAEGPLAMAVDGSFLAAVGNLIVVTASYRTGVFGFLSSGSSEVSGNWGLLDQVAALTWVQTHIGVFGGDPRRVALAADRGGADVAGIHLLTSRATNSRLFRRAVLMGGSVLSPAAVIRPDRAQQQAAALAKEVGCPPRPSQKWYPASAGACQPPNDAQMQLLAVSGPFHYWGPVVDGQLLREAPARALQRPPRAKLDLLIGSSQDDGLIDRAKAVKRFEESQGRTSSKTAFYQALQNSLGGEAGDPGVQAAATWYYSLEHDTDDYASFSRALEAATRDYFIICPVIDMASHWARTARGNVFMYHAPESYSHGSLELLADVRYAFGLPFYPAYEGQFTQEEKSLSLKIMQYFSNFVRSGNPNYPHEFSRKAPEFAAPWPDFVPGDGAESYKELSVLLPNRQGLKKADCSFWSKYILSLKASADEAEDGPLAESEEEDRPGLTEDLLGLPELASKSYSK

With “CBA (Codium barbatum agglutinin), purified from Codium barbatum” the inhibition of hemagglutination activity (trypsin-treated rabbit red blood cells) was 31 µg/mL.
